The results in this text go back to doi:10.1101/2024.03.08.584095, “LPOR and the membranes – evolutionary pathway towards prolamellar body formation” (bioRxiv, 2024).

This data set concerns the molecule itself. The experiment in a line: negative-stain electron microscopy; purified SynPOR with PG lipids and either Chlide + NADPH or Pchlide + NADP+; search for large oligomers; 37 mM sodium phosphate pH 7.1, 225 mM NaCl, 150 mM imidazole, 5 mM beta-mercaptoethanol, 25% glycerol.

B1: light-dependent protochlorophyllide oxidoreductase from Synechocystis (SynPOR) (enzyme, UniProt Q59987 1-322, looked up)
chain: MEQPMKPTVIITGASSGVGLYGAKALIDKGWHVIMACRNLDKTQKVADELGFPKDSYTIIKLDLGYLDSVRRFVAQFRELGRPLKALVCNAAVYFPLLDEPLWSADDYELSVATNHLGHFLLCNLLLEDLKACPDADKRLIILGTVTANSKELGGKIPIPAPPDLGNFEGFEAGFKKPIAMINNKKFKSGKAYKDSKLCNMLTTRELHRRFHQETGIVFNSLYPGCVADTPLFRNHYSLFRTIFPWFQKNVTKGYVSQELAGERVAMVVADDKFKDSGVHWSWGNRQQAGREAFVQELSEQGSDAQKAQRMWDLSEKLVGLV
notes: light-dependent protochlorophyllide oxidoreductase (SynPOR), Synechocystis, Uniprot Q59987; The reaction buffer holds 150 mM imidazole, so a His tag is likely (surmise); In the assay it stood with PG liposomes, pigment (Pchlide or Chlide) and NADP+ or NADPH; also called cyanobacterial LPOR; LPOR
Consider B1, for which the binding result is given as “binds”.
